The target of assay [1] is T1, rat thoracic aorta rings (Rattus norvegicus, UniProt P49684).
T1 sequence (P49684 1-386): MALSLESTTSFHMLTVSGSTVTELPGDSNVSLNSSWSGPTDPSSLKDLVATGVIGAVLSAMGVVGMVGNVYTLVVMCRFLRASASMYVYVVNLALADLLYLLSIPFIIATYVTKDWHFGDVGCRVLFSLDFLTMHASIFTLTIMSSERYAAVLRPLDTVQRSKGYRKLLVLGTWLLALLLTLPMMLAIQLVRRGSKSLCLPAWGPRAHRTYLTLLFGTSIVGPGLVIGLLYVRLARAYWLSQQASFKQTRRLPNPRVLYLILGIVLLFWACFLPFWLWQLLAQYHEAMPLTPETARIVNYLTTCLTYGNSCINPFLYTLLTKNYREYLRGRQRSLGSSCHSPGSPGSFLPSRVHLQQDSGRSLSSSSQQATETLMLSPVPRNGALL
Description: Modulation of URP-mediated rat aortic ring contraction. Conditions: URP alone, percentage of KCl (40 mM) contraction divided by tissue response to URP (10^−6 M), mean ± SEM, n = 22, read-out: URP-mediated contraction Emax, control (no pretreatment). The protocol: (§1) Each replicate (n) was conducted on tissue obtained from at least three different animals. Data represent mean ± SEM.
(§2) Adult male Sprague-Dawley rats (Charles-River) weighing 250–300 g were housed in cages under controlled illumination (12:12 h light–dark cycle), humidity, and temperature (21–23 °C) and had free access to tap water and rat chow. All experimental procedures were performed in accordance with regulations and ethical guidelines from the Canadian Council for the Care of Laboratory Animals and received approvals of the institutional animal care and use committee of the Institut National de la Recherche Scientifique—Centre Armand-Frappier Santé Biotechnologie. As previously described ([17], [18]), the thoracic aorta was cleared of surrounding tissue and then excised from the aortic arch to the diaphragm. Conjunctive tissues were next removed from the thoracic aorta and the vessels were divided into five rings of 4 mm. The endothelium of each aortic ring was removed by gently rubbing the vessel intimal surface. Aortic rings were then placed in a 5 ml organ bath filled with oxygenated normal Krebs–Henseleit buffer. Eighty microliters of a 2.5 M potassium chloride solution (40 mM final concentration) was used to evaluate maximal contractile responses of each vessel. […] Cumulative concentration–response curves to synthetic peptides were obtained by increasing the concentration of each peptide in the remaining organ chambers (10^−11–10^−5 M).

Assay [2] has as its target T1, rat thoracic aorta rings. Description: Rat aortic ring contraction (agonist). Conditions: mean ± SEM. The procedure:
as §1, §2

For assay [3], the target named is T2, human urotensin II receptor, on HEK 293 cells stably expressing it (human) (UniProt Q9UKP6).
T2 sequence: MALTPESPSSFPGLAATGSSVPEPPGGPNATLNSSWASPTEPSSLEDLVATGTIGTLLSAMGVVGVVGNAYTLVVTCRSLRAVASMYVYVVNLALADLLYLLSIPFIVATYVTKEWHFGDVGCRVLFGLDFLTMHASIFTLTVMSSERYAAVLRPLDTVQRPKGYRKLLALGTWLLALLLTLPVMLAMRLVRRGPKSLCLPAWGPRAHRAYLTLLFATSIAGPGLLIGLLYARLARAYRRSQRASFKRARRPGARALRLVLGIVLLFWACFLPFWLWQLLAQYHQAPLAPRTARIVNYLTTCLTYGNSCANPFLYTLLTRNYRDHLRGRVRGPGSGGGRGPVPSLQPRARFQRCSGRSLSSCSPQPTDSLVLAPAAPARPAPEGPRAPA

The target of assay [4] is T3, human urotensin II receptor, on CHO-K1 cells stably expressing it (human) (UniProt Q9UKP6).
T3 sequence: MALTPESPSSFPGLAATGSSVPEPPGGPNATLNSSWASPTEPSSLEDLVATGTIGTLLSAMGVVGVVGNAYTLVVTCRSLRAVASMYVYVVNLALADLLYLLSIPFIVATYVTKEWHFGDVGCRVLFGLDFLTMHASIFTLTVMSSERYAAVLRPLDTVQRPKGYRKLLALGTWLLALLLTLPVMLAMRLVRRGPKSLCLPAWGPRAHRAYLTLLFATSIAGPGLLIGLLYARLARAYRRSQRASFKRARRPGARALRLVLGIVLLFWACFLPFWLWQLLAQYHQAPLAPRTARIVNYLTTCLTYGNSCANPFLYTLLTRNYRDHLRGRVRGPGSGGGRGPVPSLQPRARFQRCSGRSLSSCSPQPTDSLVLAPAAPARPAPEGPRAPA

In assay [5] the target is T3, human urotensin II receptor, on CHO-K1 cells stably expressing it (human). This is another data set of the same source.
The mark [6] stands for this setting: scale: % of the activation induced by hUII.

* marks the point of attachment. Palmitoyl = CCCCCCCCCCCCCCCC(=O)*

In general, Emax refers to the size of the effect at its maximum, as opposed to the concentration needed.

Regarding `CC(C)[C@H](NC(=O)[C@@H]1CSSC[C@H](NC(=O)[C@H](C)N)C(=O)N[C@@H](Cc2ccccc2)C(=O)N[C@@H](Cc2c[nH]c3ccccc23)C(=O)N[C@@H](CCCCN)C(=O)N[C@@H](Cc2ccc(O)cc2)C(=O)N1)C(=O)O` [URP, urotensin II-related peptide, reference compound], the Emax in assay [1] was 105 ± 3%; in assay [2] (percentage of contraction induced by 40 mM KCl, n = 22) it was 108 ± 3%. The “contraction pEC50” value in assay [2] (n = 22 (hUII, URP), n = 5 (pepducins)) is 8.10 ± 0.06.

B1: hUT-Pep2 (peptide)
peptide: Palmitoyl-RPLDTVQRPKGY-NH2
SMILES: CCCCCCCCCCCCCCCC(=O)N[C@@H](CCCNC(=N)N)C(=O)N1CCC[C@H]1C(=O)N[C@@H](CC(C)C)C(=O)N[C@@H](CC(=O)O)C(=O)N[C@H](C(=O)N[C@H](C(=O)N[C@@H](CCC(N)=O)C(=O)N[C@@H](CCCNC(=N)N)C(=O)N1CCC[C@H]1C(=O)N[C@@H](CCCCN)C(=O)NCC(=O)N[C@@H](Cc1ccc(O)cc1)C(N)=O)C(C)C)[C@@H](C)O
On to B1, for which, in assay [3], the G13 activation (BRET biosensor), HEK 293-hUT cells; pEC50 was 6.33 -log EC50; the Gi activation (BRET biosensor), HEK 293-hUT cells; pEC50 was 10.1 -log EC50; the Gq activation (BRET biosensor), HEK 293-hUT cells; pEC50 is 7.31 -log EC50. Besides, in assay [3] (setting [6]), the G13 activation (BRET biosensor), HEK 293-hUT cells; Emax amounted to 154; the Gi activation (BRET biosensor), HEK 293-hUT cells; Emax turned out to be 96; the Gq activation (BRET biosensor), HEK 293-hUT cells; Emax turned out to be 9; the β-arrestin 2 conformational change (BRET biosensor), HEK 293-hUT cells; maximum efficacy at 10^-6 M worked out at 15. Further, in assay [4], the IP1 production (IP-One terbium immunoassay), CHO-hUT cells, 40 min; efficacy at 10^-5 M (% of the hUII maximum effect) stood at 35 and the IP1 production (IP-One terbium immunoassay), CHO-hUT cells, 40 min; pEC50 was < 6 -log EC50. In assay [5], the ERK1/2 phosphorylation (western blot), CHO-hUT cells, 5 min; Emax (% of the hUII maximum effect) was found to be 34 and the ERK1/2 phosphorylation (western blot), CHO-hUT cells, 5 min; pEC50 was 7.26 -log EC50.

B2: [Trp^1, Leu^2]hUT-Pep3 (peptide)
peptide: Palmitoyl-WLSQRASFKRARR-NH2
SMILES: CCCCCCCCCCCCCCCC(=O)N[C@@H](Cc1c[nH]c2ccccc12)C(=O)N[C@@H](CC(C)C)C(=O)N[C@@H](CO)C(=O)N[C@@H](CCC(N)=O)C(=O)N[C@@H](CCCNC(=N)N)C(=O)N[C@@H](C)C(=O)N[C@@H](CO)C(=O)N[C@@H](Cc1ccccc1)C(=O)N[C@@H](CCCCN)C(=O)N[C@@H](CCCNC(=N)N)C(=O)N[C@@H](C)C(=O)N[C@@H](CCCNC(=N)N)C(=O)N[C@@H](CCCNC(=N)N)C(N)=O
Regarding B2, in assay [3], the G13 activation (BRET biosensor), HEK 293-hUT cells; pEC50 is 6.51 -log EC50; the Gi activation (BRET biosensor), HEK 293-hUT cells; pEC50 is 10.4 -log EC50; the Gq activation (BRET biosensor), HEK 293-hUT cells; pEC50 was 8.34 -log EC50; the β-arrestin 1 conformational change (BRET biosensor), HEK 293-hUT cells; pEC50 was 8.08 -log EC50. In addition, the β-arrestin 2 conformational change (BRET biosensor), HEK 293-hUT cells; pEC50 in assay [3] is 7.74 -log EC50. In assay [3] (setting [6]), this molecule yielded a G12 activation (BRET biosensor), HEK 293-hUT cells; maximum efficacy at 10^-6 M of 5; a G13 activation (BRET biosensor), HEK 293-hUT cells; Emax of 185; a Gi activation (BRET biosensor), HEK 293-hUT cells; Emax of 97; a Gq activation (BRET biosensor), HEK 293-hUT cells; Emax of 29. Besides, in assay [3] (setting [6]), the β-arrestin 1 conformational change (BRET biosensor), HEK 293-hUT cells; Emax is 18 and the β-arrestin 2 conformational change (BRET biosensor), HEK 293-hUT cells; Emax was found to be 19. Moreover, in assay [4], the IP1 production (IP-One terbium immunoassay), CHO-hUT cells, 40 min; efficacy at 10^-5 M (% of the hUII maximum effect) worked out at 60 and the IP1 production (IP-One terbium immunoassay), CHO-hUT cells, 40 min; pEC50 was < 6 -log EC50. Besides, in assay [5], the ERK1/2 phosphorylation (western blot), CHO-hUT cells, 5 min; Emax (% of the hUII maximum effect) stood at 56 and the ERK1/2 phosphorylation (western blot), CHO-hUT cells, 5 min; pEC50 was 6.7 -log EC50.
